In patent US20220411483A1 (Chugai, published 2022):
Changes are numbered by the printed parent chain.

T1: FcγRIIb extracellular domain with C-terminal His tag (human, UniProt P31994 43-217)
T1 construct: extracellular domain; also called FcgRIIb; not shown: His tag at the C terminus
T1 sequence (looked up): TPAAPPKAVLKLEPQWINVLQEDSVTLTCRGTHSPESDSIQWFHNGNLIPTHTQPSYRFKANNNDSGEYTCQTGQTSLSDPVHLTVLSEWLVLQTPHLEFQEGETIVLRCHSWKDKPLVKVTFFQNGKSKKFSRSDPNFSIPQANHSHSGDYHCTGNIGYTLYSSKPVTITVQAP

T2: FcγRIIa R type extracellular domain with C-terminal His tag (human, UniProt P12318 34-217)
T2 construct: extracellular domain; also called FcgRIIaR; not shown: His tag at the C terminus
T2 sequence (looked up): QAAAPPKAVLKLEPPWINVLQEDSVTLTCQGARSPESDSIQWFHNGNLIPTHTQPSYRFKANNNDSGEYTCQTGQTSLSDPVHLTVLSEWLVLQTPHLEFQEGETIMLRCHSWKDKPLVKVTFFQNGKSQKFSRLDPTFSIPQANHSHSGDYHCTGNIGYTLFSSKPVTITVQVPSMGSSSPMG

T3: FcγRIIa H type extracellular domain, His tag (human, UniProt P12318 34-217)
T3 construct: extracellular domain; also called FcgRIIaH
T3 sequence (looked up): T2 sequence (looked up) with R134H

T4: FcγRIIb extracellular domain, His tag (human, UniProt P31994 43-217)
T4 construct: extracellular domain; also called FcgRIIb
T4 sequence (looked up): T1 sequence (looked up)

T5: FcγRIIa R type extracellular domain, His tag (human, UniProt P12318 34-217)
T5 construct: extracellular domain; also called FcgRIIaR
T5 sequence (looked up): T2 sequence (looked up)

B1: IL6R-BP508/IL6R-L (antibody, human IgG1, kappa, name in EU numbering)
heavy: QVQLQESGPGLVKPSETLSLTCAVSGHSISHDHAWSWVRQPPGEGLEWIGFISYSGITNYNPSLQGRVTISRDNSKNTLYLQMNSLRAEDTAVYYCARSLARTTAMDYWGEGTLVTVSSASTKGPSVFPLAPSSKSTSGGTAALGCLVKDYFPEPVTVSWNSGALTSGVHTFPAVLQSSGLYSLSSVVTVPSSSLGTQTYICNVNHKPSNTKVDKKVEPKSCDKTHTCPPCPAPDLLGDDSVFLFPPKPKDTLMISRTPEVTCVVIDVAEEDGPVKFNWYVDGVEVHNAKTKPREEQDNSTYRVVSVLTVLHQDWLNGKEYKCKVSNKALPAPIEKTISKAKGQPREPQVYTLPPSRDELTKNQVSLTCLVKGFYPSDIAVEWESNGQPENNYKTTPPVLDSDGSFFLYSKLTVDKSRWQQGNVFSCSVMHEALHNHYTQESLSLSP
light: not shown
notes: human IgG1
B2: IL6R-P591/IL6R-L (antibody, human IgG1, kappa)
heavy: B1 heavy with D235E, D239G, F243M, I266V, A269S, E270H, G273P, P274E, D298E, E441K
light: not shown
B3: IL6R-P603/IL6R-L (antibody, human IgG1, kappa)
heavy: QVQLQESGPGLVKPSETLSLTCAVSGHSISHDHAWSWVRQPPGEGLEWIGFISYSGITNYNPSLQGRVTISRDNSKNTLYLQMNSLRAEDTAVYYCARSLARTTAMDYWGEGTLVTVSSASTKGPSVFPLAPSSKSTSGGTAALGCLVKDYFPEPVTVSWNSGALTSGVHTFPAVLQSSGLYSLSSVVTVPSSSLGTQTYICNVNHKPSNTKVDKKVEPKSCDKTHTCPPCPAPELLGGDSVMLFPPKPKDTLMISRTPEVTCVVVDVSHEDPEVKFNWYVDGVEVHNAKTKPREEQENSTYRVVSVLTVLHQDWLNGKEYKCKISNKALPAPIEKTISKAKGQPREPQVYTLPPSRDELTKNQVSLTCLVKGFYPSDIAVEWESNGQPENNYKTTPPVLDSDGSFFLYSKLTVDKSRWQQGNVFSCSVMHEALHNHYTQKSLSLSP
light: not shown
B4: IL6R-P654/IL6R-L (antibody, human IgG1, kappa)
heavy: B3 heavy with I325V, S326N
light: not shown
B5: IL6R-P655/IL6R-L (antibody, human IgG1, kappa)
heavy: B3 heavy with I325V, S326H
light: not shown
B6: IL6R-P605/IL6R-L (antibody, human IgG1, kappa)
heavy: B3 heavy with M243F, E298D, S300A, I325V
light: not shown
B7: IL6R-P653/IL6R-L (antibody, human IgG1, kappa)
heavy: B3 heavy with H270P, I325V
light: not shown
B8: IL6R-P602/IL6R-L (antibody, human IgG1, kappa)
heavy: B3 heavy with Q297V, I325V
light: not shown
B9: IL6R-P656/IL6R-L (antibody, human IgG1, kappa)
heavy: B3 heavy with I325V, A332H
light: not shown
B10: IL6R-P662/IL6R-L (antibody, human IgG1, kappa)
heavy: B3 heavy with M243F, E298D, S300A, I325V, S326N
light: not shown
B11: IL6R-P663/IL6R-L (antibody, human IgG1, kappa)
heavy: B3 heavy with M243F, E298D, S300A, I325V, A332H
light: not shown

Each binder was assayed against T6, FcγRIa extracellular domain with C-terminal His tag (human, UniProt P12314 16-292) (assay: SPR, antibody captured, FcgR analyte).
T6 construct: also called FcgRIa; CD64; not shown: His tag at the C terminus
T6 sequence (P12314 16-292): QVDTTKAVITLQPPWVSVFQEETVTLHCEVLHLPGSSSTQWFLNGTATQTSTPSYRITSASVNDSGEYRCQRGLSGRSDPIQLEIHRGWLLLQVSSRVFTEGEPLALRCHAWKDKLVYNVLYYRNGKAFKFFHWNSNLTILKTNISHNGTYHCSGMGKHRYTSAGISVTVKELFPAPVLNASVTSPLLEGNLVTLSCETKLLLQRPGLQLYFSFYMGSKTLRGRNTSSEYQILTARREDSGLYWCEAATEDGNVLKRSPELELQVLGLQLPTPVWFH

Binder | Kd [nM]
B1 | 1.4

These binders were tested against T1, FcγRIIb extracellular domain with … (assay: SPR, antibody captured, FcgR analyte).

Binder | Kd [nM]
B1 | 21

Each binder was assayed against T2, FcγRIIa R type extracellular domain … (assay: SPR, antibody captured, FcgR analyte).

Binder | Kd [nM]
B1 | 540

The binders below were run against T3, FcγRIIa H type extracellular domain, … (assay: SPR, KD ratio).

Binder | Relative FcgRIIaH-binding Activity
B2 | 0.011 fold of IL6R-G1d/IL6R-L
B3 | 0.009 fold of IL6R-G1d/IL6R-L
B4 | 0.014 fold of IL6R-G1d/IL6R-L
B5 | 0.017 fold of IL6R-G1d/IL6R-L
B6 | 0.007 fold of IL6R-G1d/IL6R-L
B7 | 0.009 fold of IL6R-G1d/IL6R-L
B8 | 0.01 fold of IL6R-G1d/IL6R-L
B9 | 0.011 fold of IL6R-G1d/IL6R-L

The binders below were run against T7, FcγRIa extracellular domain, His tag (human, UniProt P12314 16-292) (assay: SPR, KD ratio).
T7 construct: whole entry named; also called FcgRIa
T7 sequence (P12314 16-292): as above

Binder | Relative FcgRIa-binding Activity
B2 | 0.0138 fold of IL6R-G1d/IL6R-L
B3 | 0.015 fold of IL6R-G1d/IL6R-L
B4 | 0.0206 fold of IL6R-G1d/IL6R-L
B5 | 0.0183 fold of IL6R-G1d/IL6R-L
B6 | 0.0384 fold of IL6R-G1d/IL6R-L
B7 | 0.0183 fold of IL6R-G1d/IL6R-L
B8 | 0.0174 fold of IL6R-G1d/IL6R-L
B9 | 0.0118 fold of IL6R-G1d/IL6R-L

What follows are binders tested against T4, FcγRIIb extracellular domain, His tag (assay: SPR, KD ratio).

Binder | Relative FcgRIIb-binding Activity
B2 | 1.65 fold of IL6R-G1d/IL6R-L
B3 | 1.9 fold of IL6R-G1d/IL6R-L
B4 | 2.02 fold of IL6R-G1d/IL6R-L
B5 | 1.89 fold of IL6R-G1d/IL6R-L
B6 | 0.977 fold of IL6R-G1d/IL6R-L
B7 | 1.46 fold of IL6R-G1d/IL6R-L
B8 | 2.13 fold of IL6R-G1d/IL6R-L
B9 | 2.68 fold of IL6R-G1d/IL6R-L

These binders were tested against T5, FcγRIIa R type extracellular domain, … (assay: SPR, KD ratio).

Binder | Relative FcgRIIaR-binding Activity
B2 | 0.034 fold of IL6R-G1d/IL6R-L
B3 | 0.026 fold of IL6R-G1d/IL6R-L
B4 | 0.032 fold of IL6R-G1d/IL6R-L
B5 | 0.03 fold of IL6R-G1d/IL6R-L
B6 | 0.021 fold of IL6R-G1d/IL6R-L
B7 | 0.024 fold of IL6R-G1d/IL6R-L
B8 | 0.028 fold of IL6R-G1d/IL6R-L
B9 | 0.032 fold of IL6R-G1d/IL6R-L

These binders were tested against T8, FcγRIIIa V type extracellular domain, His tag (human, UniProt P08637 17-208) (assay: SPR, KD ratio).
T8 construct: extracellular domain; also called FcgRIIIaV
T8 sequence (P08637 17-208 F176V): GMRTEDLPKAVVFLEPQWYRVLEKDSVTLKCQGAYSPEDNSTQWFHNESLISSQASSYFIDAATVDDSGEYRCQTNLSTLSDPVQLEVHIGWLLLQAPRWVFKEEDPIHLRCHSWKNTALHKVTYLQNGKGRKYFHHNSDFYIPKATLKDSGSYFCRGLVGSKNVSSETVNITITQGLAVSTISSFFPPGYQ

Binder | Relative FcgRIIIaV-binding Activity
B2 | 0.008 fold of IL6R-G1d/IL6R-L
B3 | 0.004 fold of IL6R-G1d/IL6R-L
B4 | 0.007 fold of IL6R-G1d/IL6R-L
B5 | 0.007 fold of IL6R-G1d/IL6R-L
B6 | 0.008 fold of IL6R-G1d/IL6R-L
B7 | 0.007 fold of IL6R-G1d/IL6R-L
B8 | 0.006 fold of IL6R-G1d/IL6R-L
B9 | 0.007 fold of IL6R-G1d/IL6R-L

Each binder was assayed against T4, FcγRIIb extracellular domain, His tag (assay: SPR, bound amount per captured antibody).

Binder | Relative FcgRIIb-binding Activity
B2 | 131 % of IL6R-G1d/IL6R-L
B10 | 73.3 % of IL6R-G1d/IL6R-L
B3 | 130 % of IL6R-G1d/IL6R-L
B4 | 128 % of IL6R-G1d/IL6R-L
B5 | 127 % of IL6R-G1d/IL6R-L
B6 | 82 % of IL6R-G1d/IL6R-L
B7 | 116 % of IL6R-G1d/IL6R-L
B8 | 112 % of IL6R-G1d/IL6R-L
B11 | 79.7 % of IL6R-G1d/IL6R-L
B9 | 138 % of IL6R-G1d/IL6R-L

The binders below were run against T5, FcγRIIa R type extracellular domain, … (assay: SPR, bound amount per captured antibody).

Binder | Relative FcgRIIaR-binding Activity
B2 | 20 % of IL6R-G1d/IL6R-L
B10 | 11.2 % of IL6R-G1d/IL6R-L
B3 | 16.9 % of IL6R-G1d/IL6R-L
B4 | 18.2 % of IL6R-G1d/IL6R-L
B5 | 17.1 % of IL6R-G1d/IL6R-L
B6 | 13.5 % of IL6R-G1d/IL6R-L
B7 | 14.5 % of IL6R-G1d/IL6R-L
B8 | 18.1 % of IL6R-G1d/IL6R-L
B11 | 10.1 % of IL6R-G1d/IL6R-L
B9 | 18.2 % of IL6R-G1d/IL6R-L

These binders were tested against T1, FcγRIIb extracellular domain with … (assay: SPR; KD of IL6R-B3/IL6R-L divided by KD of variant).

Binder | Relative FcgRIIb-binding Activity
B1 | 149

What follows are binders tested against T2, FcγRIIa R type extracellular domain … (assay: SPR; KD of IL6R-B3/IL6R-L divided by KD of variant).

Binder | Relative FcgRIIaR-binding Activity
B1 | 2
